What was measured:
[1] = target: T1, YU2 gp120 core, from which V1, V2, and V3 have been deleted (HIV-1 YU2, UniProt P35961 82-479); experiment: ELISA, background-subtracted OD, mAb titrated
T1 construct: domain: gp120 core; also called YU2 core; YU2-core

[2] = target: T1, YU2 gp120 core, from which V1, V2, and …; experiment: ELISA, graded
[3] = target: T2, HIV-1 IIIB p24 recombinant protein (HIV-1 IIIB); experiment: SPR, mAb immobilized on a Protein A chip, 0-200 nM p24, room temperature
T2 construct: domain: p24
Experimental: Surface Plasmon Resonance (SPR) analysis of anti-p24 mAbs. […] Surface Plasmon Resonance (SPR) analysis of each mAb binding to p24. Sensorgrams were obtained at room temperature for each mAb immobilized on a Protein A chip with 0-200 nM concentrations of p24 passed over the chip.

B1: N60P23 (antibody, V domains shown)
VH: HVQLVQSGTEVKRPGASVRISCASSGYTFSNYFIHWVRQAPGRGLEWMGWMNPLRGAVNYSGKFQGRVTMTRDIYTETSFMVLSGLRSDDTAIYFCARGRDGYEYGFNPWGQGTLVTVSS
VL: CYVQTQSPSTLYASVGDRVTITCRSSQSGWKAWYQQKPGKAPKLLIYKSSTLESGVPSRFSGSDSGTEFNLTITSLQPDDFATYFCQHFETFGQGTRVEVR
notes: they may be variable regions only; Kappa light chain
binding result [1]: no binding (tested: 0.8 ug/ml)

B2: N60P2.1 (antibody, V domains shown)
VH: RAQLVQSGPEVKKPGASVRISCAASGYTFVDSFIHWLRQAPGQGLEWIGWINPLRGGVNYSGRFQGRVAMTRNTFTETVYMDINGLTPDDTATYFCVRAPDSYDRGYDAWGQGTRVIVTS
VL: YIQVTQSPSTLSASIGDTVTITCRASEGWLAWYQQKPGKAPKLIIYKTSTLERGVPSRFSGSVSGADFTLTISGLQSDDFATYYCQKFEFFGQGTVVDMK
notes: they may be variable regions only
binding result [2]: no binding

B3: N60P25.1 (antibody, V domains shown)
VH: QIELVQSGTEVKRPGASVRISCASSGYRFTNYFIHWVRQAPGRGLEWMGWMNPLHGGVNYSGRFQGRVTMTRDIYTETSFMVLSGLTSDDTAIYFCTRGRDGYDDGFHPWGQGTLVTVSA
VL: YVQSQSPSTLYASVGDKITITCRSSQSGWKAWYQQKPGKAPKLLIYKSSILETGVPSRFSGSDSGTEFTLTISSLQPDDFATYYCQHFETFGQGTRVQVR
notes: Kappa light chain; also called N6025.1
binding result [2]: no binding

B4: N60P53 (antibody, V domains shown)
VH: QVQLQESGPGLVKPSQTLSLTCTVSGGSINSGGYFWTWIRQEPGKGLEWIGHVHSSGTTSYNPSLKSRLTISLDSSKNQFSLNLTSVTAADTAVYYCASQGRLGIGDYWGQGALVVVSS
VL: DIQMTQSPSSLSASVGDRVTITCRASQGVSHLVNWYQQKPGKAPKPLIYTVSSLHSGVPSRISGSGSETEFTLTISSLQPEDFATYYCQQTYSSPRTFGQGTRVDLK
notes: Anti-p24 mAb; they may be variable regions only; captured on Protein A chip in SPR; also called N6053
Kd [3]: 0.0399 nM | koff [3]: 3.81e-05 s⁻¹ | kon [3]: 954000 M⁻¹ s⁻¹

From patent publication US20200182883A1 (UNIVERSITY OF MARYLAND BALTIMORE, published 2020)
